Earlier results on one substance are cited in publication PMC5681435, “Differential Regulation of G1 CDK Complexes by the Hsp90-Cdc37 Chaperone System” (Cell Reports, 2017).

The target of this data set is B-Raf V600E kinase domain (Homo sapiens) (UniProt P15056). Description: ITC. The note with it: cited from earlier work.
Sequence of B-Raf V600E kinase domain (Homo sapiens) (P15056 457-717 V600E): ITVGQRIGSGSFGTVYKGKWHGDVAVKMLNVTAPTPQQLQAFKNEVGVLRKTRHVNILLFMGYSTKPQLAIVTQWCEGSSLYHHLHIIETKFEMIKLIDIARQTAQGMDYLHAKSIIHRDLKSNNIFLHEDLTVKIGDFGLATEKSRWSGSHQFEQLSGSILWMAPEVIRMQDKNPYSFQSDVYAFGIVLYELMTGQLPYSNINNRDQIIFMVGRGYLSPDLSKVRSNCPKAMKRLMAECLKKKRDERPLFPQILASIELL

Sequence of Cdc37 (Q16543 2-378): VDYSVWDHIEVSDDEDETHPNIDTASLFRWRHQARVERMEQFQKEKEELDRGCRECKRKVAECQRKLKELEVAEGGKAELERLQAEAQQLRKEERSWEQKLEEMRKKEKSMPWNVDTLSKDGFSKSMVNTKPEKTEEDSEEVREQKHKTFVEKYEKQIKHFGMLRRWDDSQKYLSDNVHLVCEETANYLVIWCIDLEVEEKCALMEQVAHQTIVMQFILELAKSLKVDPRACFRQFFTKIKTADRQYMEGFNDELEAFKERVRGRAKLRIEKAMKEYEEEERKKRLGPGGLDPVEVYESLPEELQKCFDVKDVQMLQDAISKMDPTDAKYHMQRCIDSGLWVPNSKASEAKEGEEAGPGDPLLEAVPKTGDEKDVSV

Turning to Cdc37 (from UniProt Q16543), the Kd was 200 nM.
